Laboratory results published in patent publication CN115772220A (WUHAN ABCLONAL INC, dated 2023).
Values belong to the binder of their own block, whether it stands above or below them.

Assays:
[1] = biological target: T1, 重组人白介素-1β，R&D货号:840170 (recombinant human IL-1β standard of the sandwich ELISA) (human, UniProt P01584 117-269); test: double-antibody sandwich ELISA, 10A10 capture and 1F3-biotin detection, human IL-1β at 100pg/mL
T1 construct: also called 标准样品; 人白介素-1β蛋白

[2] = biological target: T2, 重组人IL-1β蛋白 (recombinant human IL-1β protein, as used in the Gator BLI experiments) (human, UniProt P01584 117-269); test: BLI (Gator Prime), affinity test
T2 construct: also called 人白介素-1β; 目的蛋白

[3] = biological target: 重组人IL-1β蛋白 (recombinant human IL-1β protein, as used in the Gator BLI experiments) (human) (UniProt P01584); test: BLI (Gator Prime), IL-1β on the probe saturated with 1F3, 10A10 as second antibody

binding result [1]: binds
binding result [2]: binds
B1: 兔单克隆抗体1F3 (rabbit monoclonal antibody 1F3 against human IL-1β) (antibody, V domains shown)
VH: QSVEESGGRLVTPGTPLTLTCTVSGFSLSRNAISWVRQPPGKGLEWIGFISSYDTTYYATWAKGRFTISKTSTTVDLKIASPTTEDTATYFCARETGADNNSNFDIWGPGTLVTVSS
VL: AQVLTQTPSPVSAAVGGTVTINCQSSQSVSHNNWLAWYQQKPGQPPKLLIYDASKLASGVSSRFRGSGSGTQFTLTISGVQCDDAATYYCQGETFCSSADCNAFGGGTELVVKG
notes: In the BLI experiments it was unlabelled; also called 兔抗Human IL-1β单克隆抗体A; 1F3-biotin

shift值 [3]: 0.214
B2: 兔单克隆抗体10A10 (rabbit monoclonal antibody 10A10 against human IL-1β) (antibody, V domains shown)
VH: QSVEESGGRLVTPGTPLTLTCTVSGFSLSTYAMSWVRQAPGKGLEWIGIISGSGNTAYASWAKGRFTISKTSTTVDLKMTSPTTEDTATYFCARSYEDYANIWGPGTLVTVSS
VL: AQVLTQTPSSVSAAVGGTVTINCQASQSLYNNNELSWYQQKPGQPPKLLIYKASTLASGVSSRFKGSGSGTQFTLTISGVQCDDAATYYCQGDYSCRIADCYAFGGGTEVVVKG
